Source: patent US20230408517A1 (BIO TECHNE, published 2023)
Positions count from the first letter of the chain named. Read-outs that look alike come from different tables or passages of the source.

What was measured:
[1] = target: T1, recombinant his-tagged homotrimeric SARS-CoV-2 spike protein (SARS-CoV-2, UniProt P0DTC2 16-1211); assay: flow cytometry, blocking of binding to hACE-2 cells
[2] = target: T2, recombinant monomeric SARS-CoV-1 S1 protein (SARS-CoV-1, UniProt P59594 14-667); assay: antigen-down ELISA, coated SARS-CoV-1 S1 titrated, Ab 1 µg/mL
[3] = target: T3, recombinant monomeric SARS-CoV-2 S1 protein, his-tagged (SARS-CoV-2, UniProt P0DTC2 16-681); assay: flow cytometry, blocking of binding to hACE-2 cells
T3 construct: domain: S1

[4] = target: T4, SARS-CoV spike RBD (R306-F527), C-terminal 6-His (SARS-CoV, UniProt P59594 306-527); assay: as above
[5] = target: T1, recombinant his-tagged homotrimeric …; assay: as above; remark: listed apart in the source
[6] = target: T2, recombinant monomeric SARS-CoV-1 S1 …; assay: as above
[7] = target: T3, recombinant monomeric SARS-CoV-2 S1 …; assay: as above; remark: listed apart in the source
[8] = target: T4, SARS-CoV spike RBD (R306-F527), …; assay: antigen-down ELISA, coated SARS-CoV-1 S1 RBD titrated, Ab 1 µg/mL
[9] = target: T4, SARS-CoV spike RBD (R306-F527), …; assay: flow cytometry, blocking of binding to hACE-2 cells; remark: listed apart in the source
[10] = target: T2, recombinant monomeric SARS-CoV-1 S1 …; assay: as above; remark: listed apart in the source
[11] = target: T4, SARS-CoV spike RBD (R306-F527), …; assay: lateral flow NC50, RBD-AuNP vs immobilised ACE2
BSA [12] = target: T5, BSA (bovine, UniProt P02769); assay: dipstick, adsorbed protein spots, Ab 10 µg/mL, GAM-AuNP
T5 construct: also called bovine serum albumin
T5 sequence (P02769 25-607 limits assumed): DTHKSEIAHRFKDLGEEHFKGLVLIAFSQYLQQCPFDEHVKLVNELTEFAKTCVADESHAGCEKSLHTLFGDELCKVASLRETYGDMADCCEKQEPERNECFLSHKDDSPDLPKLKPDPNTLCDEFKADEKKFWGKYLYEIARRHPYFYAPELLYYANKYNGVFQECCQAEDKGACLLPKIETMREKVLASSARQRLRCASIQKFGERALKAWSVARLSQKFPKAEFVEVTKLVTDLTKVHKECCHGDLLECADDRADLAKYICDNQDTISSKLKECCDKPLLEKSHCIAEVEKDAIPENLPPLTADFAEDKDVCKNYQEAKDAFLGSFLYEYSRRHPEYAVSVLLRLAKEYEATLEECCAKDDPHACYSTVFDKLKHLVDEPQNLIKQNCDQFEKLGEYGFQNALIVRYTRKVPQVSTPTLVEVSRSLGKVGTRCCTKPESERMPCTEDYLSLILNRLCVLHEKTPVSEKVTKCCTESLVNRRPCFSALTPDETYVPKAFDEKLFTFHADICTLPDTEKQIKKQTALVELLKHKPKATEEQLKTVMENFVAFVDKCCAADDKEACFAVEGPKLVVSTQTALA

[13] = target: T2, recombinant monomeric SARS-CoV-1 S1 …; assay: antigen-down ELISA, coated SARS-CoV-1 S1 titrated, Ab 1 µg/mL; remark: listed apart in the source
BSA [14] = target: T5, BSA; assay: dipstick, adsorbed protein spots, Ab 10 µg/mL, GAM-AuNP; remark: listed apart in the source
[15] = target: T4, SARS-CoV spike RBD (R306-F527), …; assay: antigen-down ELISA, coated SARS-CoV-1 S1 RBD titrated, Ab 1 µg/mL; remark: listed apart in the source
[16] = target: T4, SARS-CoV spike RBD (R306-F527), …; assay: as above; remark: listed apart in the source
[17] = target: T2, recombinant monomeric SARS-CoV-1 S1 …; assay: antigen-down ELISA, coated SARS-CoV-1 S1 titrated, Ab 1 µg/mL; remark: listed apart in the source
[18] = target: T2, recombinant monomeric SARS-CoV-1 S1 …; assay: as above; remark: listed apart in the source
BSA [19] = target: T5, BSA; assay: dipstick, adsorbed protein spots, Ab 10 µg/mL, GAM-AuNP; remark: listed apart in the source
[20] = target: T4, SARS-CoV spike RBD (R306-F527), …; assay: antigen-down ELISA, coated SARS-CoV-1 S1 RBD titrated, Ab 1 µg/mL; remark: listed apart in the source
[21] = target: T4, SARS-CoV spike RBD (R306-F527), …; assay: as above; remark: listed apart in the source
BSA [22] = target: T5, BSA; assay: dipstick, adsorbed protein spots, Ab 10 µg/mL, GAM-AuNP; remark: listed apart in the source
[23] = target: T2, recombinant monomeric SARS-CoV-1 S1 …; assay: antigen-down ELISA, coated SARS-CoV-1 S1 titrated, Ab 1 µg/mL; remark: listed apart in the source

B1: 1035211 (antibody, V domains shown)
VH: QVQLQQSGAELARPGASVKMSCKASGYTFTNYTMHWVKQRPGQGLEWIGYINPSSGYTNYNQKFKDKATLTADKSSSTAYMQLSSLTSEDSAVYYCARRNPLYAMDYWGQGTSVTVSS
VL: DIKMTQSPSSMYASLGERVTITCKASQDINSYLNWFQQKPGKSPKTLIYRANRLVDGVPSRFSGSGSGQDYSLTISSLEFEDMGIYYCLQYDEFPYTFGGGTKLEIK
For B1, the percent blocking [1] was 78.6%, the binding result [2] was “no binding (tested: 400 ng coated (axis))” and the percent blocking [3] was 88.7%. For the same binder, the percent blocking [4] was 0.1%, the percent blocking [5] was 78.6% and the percent blocking [6] was 0%. For the same binder, the percent blocking [7] was 88.7%, the binding result [8] was “no binding (tested: 400 ng coated (axis))” and the percent blocking [9] was 0.1%. It also gave a percent blocking [10] of 0%.

B2: 1035740 (antibody, V domains shown)
VH: EVLLQQSGPELVKPGASVKIPCKASGYTFTDYNMDWVKQSHGKSLEWIGDINPNNGFTIYNQKFKGKATLTVDKSSSTAYMELRSLTSEDTAVYYCAREGYGNYFDYWGQGTTLTVSS
VL: DVLLTQSPAILSVSPGERVSFSCRASQSIGTSLHWYQQRTNGSPRLLIKYVSESISGIPSRFSGSGSGTDFTLSINSVESEDIADYYCQQSSSWPTTFGAGTKLELK
B2 showed a percent blocking [1] of 96.5%, an IC50 [11] of 0.84 µg/mL and a percent blocking [3] of 93.4%. The percent blocking [4] was 98.8%, the percent blocking [5] was 96.5% and the percent blocking [6] was 92.4%. It also gave a percent blocking [7] of 93.4%, a percent blocking [9] of 98.8% and a percent blocking [10] of 92.4%. B2: no binding (tested: 10 µg/mL) (BSA [12]).

B3: 1035753 (antibody, V domains shown)
VH: EVQLQQSGAELVRPGALVKLSCKASGFNIKDYYMHWVKQRPEQGLEWIGWIDPENGNTIYDPKFLGKASITADTSSNTAYLQLSSLTSEDTAVYYCARWYYYAMDSWGQGTSVTVSS
VL: DIQMTQTTSSLSASLGDRVTISCSASQGISNYLNWYQQKPDGTVKLLIYYTSSLHSGVPSRFSGSGSGTDYSLTISNLEPEDIATYYCQQYSKLPFTFGGGTNLEMK
For B3, the percent blocking [1] was 96.6%, the binding result [13] was “no binding (tested: 400 ng coated (axis))” and the percent blocking [3] was 94%. The binding result (BSA [14]) was “no binding (tested: 10 µg/mL)”, the percent blocking [4] was 0% and the percent blocking [5] was 96.6%. For the same binder, the percent blocking [6] was 0%, the percent blocking [7] was 94% and the binding result [15] was “no binding (tested: 400 ng coated (axis))”. For the same binder, the percent blocking [9] was 0% and the percent blocking [10] was 0%.

B4: 1035755 (antibody, V domains shown)
VH: EVQLQQSGAELVRPGALVKLSCKASGFNIKDYYMHWVKQRPEQGLEWIGWIDPENGNSIYDPKFQGKASITADTSSNTAYLQLSSLTSEDTAVYYCATPSATSYFDYWGQGTTLTVSS
VL: QIVLTQSPAIMSASPGEKVTISCSASSSVSYMYWYQQKPGSSPKPWIYRTSNLASGVPARFSGSGSGTSYSLTISSMEAEDAATYYCQQYHSYPYMYTFGGGTKLEIK
In the case of B4, the percent blocking [1] is reported as 84.6%, the percent blocking [3] is reported as 93.3% and the binding result [16] is reported as “no binding (tested: 400 ng coated (axis))”. For the same binder, the percent blocking [4] was 0%, the percent blocking [5] was 84.6% and the percent blocking [6] was 1.3%. The percent blocking [7] was 93.3%, the binding result [17] was “no binding (tested: 400 ng coated (axis))” and the percent blocking [9] was 0%. It also gave a percent blocking [10] of 1.3%.

B5: 1035709 (antibody, V domains shown)
VH: EVQLQQSGPELVKPGASVKISCKTSGYTFTEYTMHWVKQSHGKSLEWIGGINPNIVDTGYNQKFKGKATLTVDKSSSTAYMELRSLTSEDSAVYYCARDGYPLYYAMDYWGQGTSVTVSS
VL: DIQMTQSPSSLSASLGERVSLTCRASQEISGYLSWLQQKPDGTIKRLIYAASTLDSGVPKRFSGSRSGSDYSLTISSLESEDFADYYCLQYASYPWTFGGGTKLEIK
B5 was tested, and the percent blocking [1] was 96.5%, the percent blocking [3] was 93.6% and the binding result [18] was “no binding (tested: 400 ng coated (axis))”. For the same binder, the percent blocking [4] was 0%, the percent blocking [5] was 96.5% and the percent blocking [6] was 0%. The percent blocking [7] was 93.6%, the percent blocking [9] was 0% and the percent blocking [10] was 0%. B5: no binding (tested: 10 µg/mL) (BSA [19]); no binding (tested: 400 ng coated (axis)) [20].

B6: 1035762 (antibody, V domains shown)
VH: B5 VH with I55N, V56G, S88F
VL: B5 VL with S34C, G57A, Y86F
For B6, the binding result [21] was “no binding (tested: 400 ng coated (axis))”, the percent blocking [1] was 93% and the binding result (BSA [22]) was “no binding (tested: 10 µg/mL)”. For the same binder, the percent blocking [3] was 93.2%, the percent blocking [4] was 0% and the percent blocking [5] was 93%. The percent blocking [6] was 0%, the percent blocking [7] was 93.2% and the percent blocking [9] was 0%. For the same binder, the percent blocking [10] was 0% and the binding result [23] was “no binding (tested: 400 ng coated (axis))”.
